Laboratory results reported in the supplement of paper PMC10065799, “High-throughput profiling of sequence recognition by tyrosine kinases and SH2 domains using bacterial peptide display” (eLife, 2023).

Key:
Fyn = Fyn (UniProt P06241); assay: phosphorylation enrichment, bacterial display (enrichment ratio); higher = better substrate or ligand; peptides without Tyr show the background
c-Abl (mouse) = assay: as above
c-Src = assay: as above
MERTK = MERTK (UniProt Q12866); assay: as above
Jak2 = Jak2 (UniProt O60674); assay: as above
Fer (mouse) = assay: as above
FGFR3 = FGFR3 (UniProt P22607); assay: as above
FGFR1 = FGFR1 (UniProt P11362); assay: as above
EPHB2 = EPHB2 (UniProt P29323); assay: as above
Hck = Hck (UniProt P08631); assay: as above
Fes = Fes (UniProt P07332); assay: as above
AncSZ = assay: as above
EPHB1 = EPHB1 (UniProt P54762); assay: as above
SHP2-C SH2 = assay: SH2 binding enrichment of the phosphorylated peptide, bacterial display (enrichment ratio); higher = better substrate or ligand; peptides without Tyr show the background
c-Src SH2 = assay: as above
Grb2 SH2 = Grb2 SH2 (UniProt P62993); assay: as above
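For SH2 binding enrichment of the phosphorylated peptide, bacterial display in this document: peptide library displayed on the E. coli surface as eCPX fusions, selected cells deep-sequenced, score is each peptide's frequency after selection divided by its frequency in the input.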
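For phosphorylation enrichment, bacterial display in this document: 11-residue human phosphosite peptides and single-mutation variants displayed on the E. coli surface, counted by deep sequencing, each peptide's frequency after selection divided by its frequency in the unselected input library; frequency after pTyr selection over input frequency; kinase dosed for 20-30% of maximal phosphorylation in three min.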

Sequence of MERTK (Q12866 whole entry, looked up): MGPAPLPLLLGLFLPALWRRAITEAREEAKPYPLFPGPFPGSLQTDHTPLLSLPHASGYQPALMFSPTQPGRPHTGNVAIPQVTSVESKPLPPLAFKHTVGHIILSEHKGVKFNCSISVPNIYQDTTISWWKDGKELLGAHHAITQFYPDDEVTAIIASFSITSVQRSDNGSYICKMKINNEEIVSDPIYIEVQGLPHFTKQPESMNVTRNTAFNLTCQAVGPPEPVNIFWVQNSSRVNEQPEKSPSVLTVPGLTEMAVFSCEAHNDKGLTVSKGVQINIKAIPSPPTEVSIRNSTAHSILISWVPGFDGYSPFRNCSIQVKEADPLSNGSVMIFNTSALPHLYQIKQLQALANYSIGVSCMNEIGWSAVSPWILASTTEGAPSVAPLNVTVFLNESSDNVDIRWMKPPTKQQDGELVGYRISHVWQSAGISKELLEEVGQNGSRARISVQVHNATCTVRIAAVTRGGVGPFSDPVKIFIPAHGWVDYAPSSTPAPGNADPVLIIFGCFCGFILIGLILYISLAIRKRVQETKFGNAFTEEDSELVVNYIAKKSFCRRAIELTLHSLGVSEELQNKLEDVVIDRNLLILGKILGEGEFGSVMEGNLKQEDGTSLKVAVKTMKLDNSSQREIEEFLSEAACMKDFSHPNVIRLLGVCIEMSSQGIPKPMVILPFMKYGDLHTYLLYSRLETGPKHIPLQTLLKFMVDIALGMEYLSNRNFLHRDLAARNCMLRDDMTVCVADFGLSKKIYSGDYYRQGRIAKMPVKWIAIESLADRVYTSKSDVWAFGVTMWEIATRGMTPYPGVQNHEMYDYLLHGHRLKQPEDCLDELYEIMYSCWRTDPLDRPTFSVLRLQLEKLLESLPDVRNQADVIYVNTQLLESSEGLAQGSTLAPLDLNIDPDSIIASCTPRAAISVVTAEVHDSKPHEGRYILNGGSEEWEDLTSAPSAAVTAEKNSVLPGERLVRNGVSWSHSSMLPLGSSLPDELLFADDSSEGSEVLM
Sequence of FGFR1 (P11362 whole entry, looked up): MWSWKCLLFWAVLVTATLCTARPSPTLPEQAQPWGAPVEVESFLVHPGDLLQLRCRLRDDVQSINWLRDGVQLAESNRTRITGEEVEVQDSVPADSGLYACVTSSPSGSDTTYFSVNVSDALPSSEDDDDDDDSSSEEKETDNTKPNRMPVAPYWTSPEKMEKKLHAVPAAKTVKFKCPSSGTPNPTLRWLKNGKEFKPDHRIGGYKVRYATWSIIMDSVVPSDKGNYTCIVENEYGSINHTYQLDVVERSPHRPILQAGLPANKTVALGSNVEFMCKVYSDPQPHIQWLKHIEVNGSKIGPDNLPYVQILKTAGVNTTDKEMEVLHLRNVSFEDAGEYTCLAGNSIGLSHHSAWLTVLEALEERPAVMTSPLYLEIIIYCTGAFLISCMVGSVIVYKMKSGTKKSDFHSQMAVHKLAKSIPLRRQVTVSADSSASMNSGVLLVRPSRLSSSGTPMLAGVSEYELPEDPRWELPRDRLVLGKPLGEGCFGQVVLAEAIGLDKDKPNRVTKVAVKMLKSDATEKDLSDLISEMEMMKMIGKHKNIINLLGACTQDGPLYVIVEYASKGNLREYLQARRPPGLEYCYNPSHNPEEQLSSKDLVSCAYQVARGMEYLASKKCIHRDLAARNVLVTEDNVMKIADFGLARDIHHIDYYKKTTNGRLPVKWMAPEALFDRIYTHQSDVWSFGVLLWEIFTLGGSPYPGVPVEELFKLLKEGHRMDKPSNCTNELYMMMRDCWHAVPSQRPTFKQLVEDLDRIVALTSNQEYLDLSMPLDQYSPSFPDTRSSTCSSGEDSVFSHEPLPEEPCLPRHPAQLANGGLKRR
Sequence of EPHB2 (P29323 whole entry, looked up): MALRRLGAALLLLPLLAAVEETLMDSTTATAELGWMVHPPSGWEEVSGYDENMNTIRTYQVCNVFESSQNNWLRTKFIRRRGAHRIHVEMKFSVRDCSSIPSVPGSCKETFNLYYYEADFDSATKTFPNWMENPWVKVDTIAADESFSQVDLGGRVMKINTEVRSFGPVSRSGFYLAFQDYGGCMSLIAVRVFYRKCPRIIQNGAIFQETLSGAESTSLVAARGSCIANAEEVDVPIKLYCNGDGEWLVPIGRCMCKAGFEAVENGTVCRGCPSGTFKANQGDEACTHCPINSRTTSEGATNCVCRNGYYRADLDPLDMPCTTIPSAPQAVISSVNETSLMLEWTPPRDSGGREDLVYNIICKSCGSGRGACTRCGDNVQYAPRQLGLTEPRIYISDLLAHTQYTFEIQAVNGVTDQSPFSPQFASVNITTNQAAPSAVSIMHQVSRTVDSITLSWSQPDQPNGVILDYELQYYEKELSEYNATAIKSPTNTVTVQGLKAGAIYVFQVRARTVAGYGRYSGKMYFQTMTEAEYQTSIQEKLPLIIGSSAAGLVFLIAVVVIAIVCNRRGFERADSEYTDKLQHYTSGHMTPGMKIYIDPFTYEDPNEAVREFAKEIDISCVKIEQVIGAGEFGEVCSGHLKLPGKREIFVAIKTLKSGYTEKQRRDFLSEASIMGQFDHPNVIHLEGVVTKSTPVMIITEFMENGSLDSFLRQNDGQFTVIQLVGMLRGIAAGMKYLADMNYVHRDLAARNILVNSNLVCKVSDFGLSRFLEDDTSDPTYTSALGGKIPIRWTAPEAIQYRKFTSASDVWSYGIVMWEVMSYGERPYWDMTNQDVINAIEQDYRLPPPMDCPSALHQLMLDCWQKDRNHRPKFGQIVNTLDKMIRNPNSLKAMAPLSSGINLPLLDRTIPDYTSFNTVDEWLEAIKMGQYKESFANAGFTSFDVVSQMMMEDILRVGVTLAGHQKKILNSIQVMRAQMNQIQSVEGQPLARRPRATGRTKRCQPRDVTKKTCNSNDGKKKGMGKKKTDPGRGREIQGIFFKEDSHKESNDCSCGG
Sequence of Hck (P08631 whole entry, looked up): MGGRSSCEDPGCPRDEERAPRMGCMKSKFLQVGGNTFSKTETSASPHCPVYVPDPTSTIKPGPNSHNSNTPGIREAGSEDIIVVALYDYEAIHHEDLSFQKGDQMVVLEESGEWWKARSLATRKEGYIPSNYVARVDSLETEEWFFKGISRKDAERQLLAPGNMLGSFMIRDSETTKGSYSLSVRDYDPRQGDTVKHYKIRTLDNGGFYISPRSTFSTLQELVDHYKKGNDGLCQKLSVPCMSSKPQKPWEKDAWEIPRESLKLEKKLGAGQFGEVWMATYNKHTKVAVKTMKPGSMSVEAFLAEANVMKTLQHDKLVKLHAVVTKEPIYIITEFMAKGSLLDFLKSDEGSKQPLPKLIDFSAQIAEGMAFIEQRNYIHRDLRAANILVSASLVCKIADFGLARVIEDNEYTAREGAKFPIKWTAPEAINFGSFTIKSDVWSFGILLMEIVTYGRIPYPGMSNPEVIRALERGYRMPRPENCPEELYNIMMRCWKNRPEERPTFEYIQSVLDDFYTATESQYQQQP
Sequence of Fes (P07332 whole entry, looked up): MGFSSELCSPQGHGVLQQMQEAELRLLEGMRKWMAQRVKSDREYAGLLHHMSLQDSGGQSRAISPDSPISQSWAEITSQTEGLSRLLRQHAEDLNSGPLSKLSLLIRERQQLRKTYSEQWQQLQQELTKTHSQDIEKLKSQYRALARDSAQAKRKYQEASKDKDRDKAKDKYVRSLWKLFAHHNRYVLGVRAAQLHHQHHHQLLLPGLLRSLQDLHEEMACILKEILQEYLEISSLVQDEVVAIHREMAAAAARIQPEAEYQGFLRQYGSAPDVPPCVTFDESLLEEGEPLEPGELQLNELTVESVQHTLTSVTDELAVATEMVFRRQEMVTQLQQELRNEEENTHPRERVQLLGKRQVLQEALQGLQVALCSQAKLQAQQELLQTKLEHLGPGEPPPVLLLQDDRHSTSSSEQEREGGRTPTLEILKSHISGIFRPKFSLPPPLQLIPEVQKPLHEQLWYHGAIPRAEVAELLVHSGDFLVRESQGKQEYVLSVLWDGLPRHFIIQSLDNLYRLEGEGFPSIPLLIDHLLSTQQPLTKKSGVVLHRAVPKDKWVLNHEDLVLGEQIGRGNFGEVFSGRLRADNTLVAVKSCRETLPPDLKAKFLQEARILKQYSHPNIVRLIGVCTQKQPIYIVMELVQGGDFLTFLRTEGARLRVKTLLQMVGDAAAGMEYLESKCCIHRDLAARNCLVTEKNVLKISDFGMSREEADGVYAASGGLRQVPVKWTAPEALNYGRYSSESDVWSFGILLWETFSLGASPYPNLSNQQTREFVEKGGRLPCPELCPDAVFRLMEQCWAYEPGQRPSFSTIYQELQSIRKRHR
Sequence of Fyn (P06241 whole entry, looked up): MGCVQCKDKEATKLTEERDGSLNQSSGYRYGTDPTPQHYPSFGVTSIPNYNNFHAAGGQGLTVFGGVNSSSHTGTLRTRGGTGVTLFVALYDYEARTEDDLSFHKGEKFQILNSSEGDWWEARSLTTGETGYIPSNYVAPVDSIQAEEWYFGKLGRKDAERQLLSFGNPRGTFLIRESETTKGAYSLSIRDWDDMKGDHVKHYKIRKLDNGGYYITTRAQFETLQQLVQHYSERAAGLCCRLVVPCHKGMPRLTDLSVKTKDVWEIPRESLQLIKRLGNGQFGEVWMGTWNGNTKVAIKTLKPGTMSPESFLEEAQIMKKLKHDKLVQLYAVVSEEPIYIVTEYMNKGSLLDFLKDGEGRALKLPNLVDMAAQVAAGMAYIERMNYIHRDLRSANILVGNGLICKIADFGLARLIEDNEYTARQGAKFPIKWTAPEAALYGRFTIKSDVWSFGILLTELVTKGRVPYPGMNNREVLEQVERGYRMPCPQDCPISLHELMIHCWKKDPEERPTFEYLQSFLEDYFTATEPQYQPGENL

SH2 binding enrichment (SHP2-C SH2)	SH2 binding enrichment (c-Src SH2)	SH2 binding enrichment (Grb2 SH2)	Sequence	phosphorylation enrichment (Fyn)	phosphorylation enrichment (c-Abl (mouse))	phosphorylation enrichment (c-Src)	phosphorylation enrichment (MERTK)	phosphorylation enrichment (Jak2)	phosphorylation enrichment (Fer (mouse))	phosphorylation enrichment (FGFR3)	phosphorylation enrichment (FGFR1)	phosphorylation enrichment (EPHB2)	phosphorylation enrichment (Hck)	phosphorylation enrichment (Fes)	phosphorylation enrichment (AncSZ)	phosphorylation enrichment (EPHB1)
0.648	0.401	0.702	IENKPYGMSDP [RET_Y1062_L1061P]	0.41	0.549	0.414	0.41	0.869	0.483	0.599	0.504	0.508	0.458	0.861	0.761	0.55
0.632	0.528	0.744	GDAMLYFPSVS [GPR143_Y177_A173D_YF]	0.55	0.674	0.746	0.726	1.92	0.521	0.98	0.801	0.446	0.692	0.823	0.721	0.511
1.01	0.488	0.755	VDGSVYKLHPS [GCK_Y413]	2.64	0.614	3.28	0.424	0.735	0.642	0.583	0.536	0.543	1.03	0.655	0.581	0.467
0.616	0.477	0.834	NDDDVYLSLEE [VAV2_Y142_R143L]	0.706	1.05	0.804	0.507	1.54	0.656	0.984	0.725	0.627	0.721	1.48	1.49	0.793
0.808	0.426	0.774	IGEGTYGQVFK [CDK13_Y716_YF]	10.8	0.566	7.69	0.428	0.569	0.636	0.402	0.324	1.18	8.97	0.665	0.456	0.62
0.641	0.392	0.799	RRIHSYRGHLW [VHL_Y112]	1.91	3.28	3.66	2.69	4.65	1.47	1.93	2.16	1.46	2.59	2.9	2.9	2.21
0.956	0.82	1.29	TCFDKYTGSTF [FN1_Y101_N104S_YF]	0.408	0.537	0.529	0.448	0.646	0.469	0.699	0.443	0.533	0.51	1.12	0.739	0.494
0.948	0.761	1	YIPSNYVAEDR [FRK_Y104]	0.523	0.685	0.536	0.535	0.721	0.434	0.72	0.634	0.623	0.501	0.954	0.921	0.519
0.604	0.523	1.07	VATRWYRSPEL [CDKL5_Y177]	0.385	0.575	0.448	0.459	1	0.384	0.518	0.372	0.516	0.482	0.73	0.834	0.421
0.663	0.786	1.02	PLRPDYQEPSR [DDR2_Y481]	0.509	0.861	0.533	0.516	1.02	0.397	0.768	0.532	0.636	0.57	1.66	1.21	0.581
0.547	0.418	0.638	NPPGMYPVTGP [LPP_Y346]	0.336	0.506	0.389	0.348	0.482	0.649	0.396	0.394	0.325	0.375	0.531	0.649	0.375
0.836	0.466	0.996	DLLMQHPKAQG [FAM83C_Y600_Y600H]	0.509	1.46	0.646	0.53	0.801	0.483	0.892	0.5	0.332	0.523	0.693	0.566	0.515
0.861	0.646	1	PGPQSYPIVTG [PAX5_Y299]	0.68	0.5	0.4	0.586	0.533	0.744	0.685	0.504	0.538	0.565	0.736	0.611	0.484
0.882	0.75	1.15	FADGVYQALEE [DUOX2_Y70_YF]	3.65	0.749	3.81	1.38	0.979	1.1	0.666	0.696	1.5	3.3	1.3	1.49	1.97
0.756	0.411	0.648	KAEELYIGVTV [EFHC2_Y509]	2.06	0.988	2.2	1.42	0.966	5.31	2.33	2.35	0.772	2.75	1.35	2.15	0.921
0.645	1.63	2.09	YTNELYMMMRD [FGFR1_Y730_C725Y]	1.4	0.766	2.18	5.02	1.35	0.982	2.27	2.52	3.13	2.85	1.35	1.68	5.42
0.662	0.474	0.878	FKDYFYCWNTF [AICDA_Y146]	0.652	1.22	1.41	2.8	3.71	1.46	7.02	8.79	2.87	0.557	1.34	2.04	4.05
0.847	0.846	1.37	AKLKDYFIFNK [CCDC42_Y149_YF]	0.465	0.435	0.658	0.56	0.759	0.487	1	1.49	0.513	0.478	0.783	0.82	0.417
1.56	1.22	1.59	VVIVLYFSLWK [SLC6A2_Y249]	0.241	0.942	0.348	0.39	0.64	0.314	0.459	0.486	0.453	0.42	1.13	0.703	0.254
1.05	0.412	0.711	RGFRQDAFDGK [HLA-A_Y140_YF]	0.414	0.935	0.633	0.559	0.461	0.487	0.73	0.488	0.475	0.396	0.633	0.575	0.454
1.32	0.813	1.19	LFQAKYQIRFR [CRLF1_Y272_YF]	0.643	1.31	1.02	0.868	1.64	0.972	1.35	1.03	0.69	0.524	1.6	1.83	0.698
0.6	0.408	0.731	MIRSAYALRGL [CPS1_Y590_G593R]	0.39	0.502	0.474	0.423	0.543	0.409	0.527	0.474	0.448	0.491	0.628	0.669	0.434
0.538	0.308	0.626	GGEEFYVHFVG [KAT8_Y90_R86G_YF]	0.58	0.967	0.501	0.433	1.24	0.592	0.96	0.648	0.605	0.612	1.39	1.34	0.747
0.852	1.25	0.782	TVQVAYYTMMM [SPATA17_Y83]	2	1.36	4.49	9.05	4.2	3.74	9.18	10.8	1.76	2.19	1.85	1.91	3.4
0.548	0.535	0.833	TSKLSYLDPRI [TOP1_Y723_N722S]	0.435	0.567	0.479	0.539	0.939	0.619	0.592	0.611	0.427	0.446	0.679	0.639	0.607
0.748	0.768	0.886	IRFPPYTDWNQ [ALDH3B2_Y365_H361R_YF]	0.395	0.45	0.328	0.421	0.555	0.53	0.493	0.54	0.392	0.439	0.739	0.741	0.396
0.698	0.644	1.01	TEDAEYDVQSK [PTCHD3_Y335_P333A]	0.539	0.848	0.535	0.492	1.07	0.606	0.689	0.515	0.609	0.591	1.14	1.38	0.611
0.689	1.66	0.972	SVVVPYESPEV [TP53_Y220_P222S]	0.578	0.73	0.509	0.463	0.867	0.488	0.647	0.561	0.609	0.566	1.13	1.36	0.57

Sequence	SH2 binding enrichment (SHP2-C SH2)	SH2 binding enrichment (c-Src SH2)	SH2 binding enrichment (Grb2 SH2)	phosphorylation enrichment (Fyn)	phosphorylation enrichment (c-Abl (mouse))	phosphorylation enrichment (c-Src)	phosphorylation enrichment (MERTK)	phosphorylation enrichment (Jak2)	phosphorylation enrichment (Fer (mouse))	phosphorylation enrichment (FGFR3)	phosphorylation enrichment (FGFR1)	phosphorylation enrichment (EPHB2)	phosphorylation enrichment (Hck)	phosphorylation enrichment (Fes)	phosphorylation enrichment (AncSZ)	phosphorylation enrichment (EPHB1)
KDGNGYISAAE [CALM1_Y100]	0.746	0.571	0.742	0.463	0.546	0.416	0.47	0.685	0.389	0.594	0.477	0.491	0.542	0.76	0.646	0.394
